T1: AtGTR2 (Arabidopsis thaliana, UniProt Q9LV10)
T1 construct: expressed in transfected cells; host or cells: Xenopus oocytes injected with in vitro transcribed cRNA (vector pNB1u)
T1 sequence (Q9LV10 1-616): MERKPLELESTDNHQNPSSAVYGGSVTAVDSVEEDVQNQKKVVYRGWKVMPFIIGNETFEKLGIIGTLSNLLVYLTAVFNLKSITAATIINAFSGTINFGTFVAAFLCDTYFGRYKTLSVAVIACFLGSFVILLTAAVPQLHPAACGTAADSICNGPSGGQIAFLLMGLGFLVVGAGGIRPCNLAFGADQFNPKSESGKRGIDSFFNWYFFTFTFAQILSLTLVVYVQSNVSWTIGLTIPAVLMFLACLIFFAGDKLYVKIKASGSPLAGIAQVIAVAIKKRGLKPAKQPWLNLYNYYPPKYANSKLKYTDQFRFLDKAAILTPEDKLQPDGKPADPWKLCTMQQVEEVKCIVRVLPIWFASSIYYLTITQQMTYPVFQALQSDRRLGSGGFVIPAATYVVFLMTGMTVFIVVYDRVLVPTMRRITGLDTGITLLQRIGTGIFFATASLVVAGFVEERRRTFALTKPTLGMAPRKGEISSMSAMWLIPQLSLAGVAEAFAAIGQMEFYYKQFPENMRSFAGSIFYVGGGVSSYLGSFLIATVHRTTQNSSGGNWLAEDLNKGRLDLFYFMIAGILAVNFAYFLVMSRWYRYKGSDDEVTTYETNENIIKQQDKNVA

T2: AtGTR1 (Arabidopsis thaliana, UniProt Q944G5)
T2 construct: A library of Arabidopsis transporters available as full length cDNAs from the RIKEN bioresource center; expressed in transfected cells; host or cells: Xenopus oocytes injected with in vitro transcribed cRNA
T2 sequence (Q944G5 31-636 limits assumed): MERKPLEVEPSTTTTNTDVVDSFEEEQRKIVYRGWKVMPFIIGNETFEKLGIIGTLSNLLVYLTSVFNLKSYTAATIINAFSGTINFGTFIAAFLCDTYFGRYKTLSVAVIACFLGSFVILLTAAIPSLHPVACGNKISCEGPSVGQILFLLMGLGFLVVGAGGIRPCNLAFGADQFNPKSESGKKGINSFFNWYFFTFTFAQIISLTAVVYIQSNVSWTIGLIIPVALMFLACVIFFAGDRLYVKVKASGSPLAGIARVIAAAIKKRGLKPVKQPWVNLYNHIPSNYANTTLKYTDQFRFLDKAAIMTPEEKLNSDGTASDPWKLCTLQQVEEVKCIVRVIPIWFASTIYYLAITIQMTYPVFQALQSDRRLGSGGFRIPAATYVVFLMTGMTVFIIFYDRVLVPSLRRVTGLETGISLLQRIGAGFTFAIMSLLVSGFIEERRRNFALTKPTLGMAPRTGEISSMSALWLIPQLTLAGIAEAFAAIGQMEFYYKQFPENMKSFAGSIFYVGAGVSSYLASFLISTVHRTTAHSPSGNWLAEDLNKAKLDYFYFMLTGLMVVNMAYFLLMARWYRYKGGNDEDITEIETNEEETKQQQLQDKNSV

B1: GTR1 S22A: GTR1 of SEQ ID NO: 2 with S at position 22 for A, mimicking dephosphorylation (protein, listed as Arabidopsis thaliana)
chain: T2 sequence (Q944G5 31-636 limits assumed) with S22A
B2: GTR1 T105D: GTR1 of SEQ ID NO: 2 with T at position 105 for D (protein, listed as Arabidopsis thaliana)
chain: T2 sequence (Q944G5 31-636 limits assumed) with T105D
B3: GTR1 S22D: GTR1 of SEQ ID NO: 2 with S at position 22 for D, mimicking phosphorylation (protein, listed as Arabidopsis thaliana)
chain: T2 sequence (Q944G5 31-636 limits assumed) with S22D
B4: GTR1 T105A: GTR1 of SEQ ID NO: 2 with T at position 105 for A (protein, listed as Arabidopsis thaliana)
chain: T2 sequence (Q944G5 31-636 limits assumed) with T105A
B5: GTR2 T58A: GTR2 of SEQ ID No: 4 with T at position 58 for A (protein, listed as Arabidopsis thaliana)
chain: T1 sequence (Q9LV10 1-616) with T58A
B6: GTR2 T117A: GTR2 of SEQ ID No: 4 with T at position 117 for A (protein, listed as Arabidopsis thaliana)
chain: T1 sequence (Q9LV10 1-616) with T117A
B7: GTR2 T117D: GTR2 of SEQ ID No: 4 with T at position 117 for D (protein, listed as Arabidopsis thaliana)
chain: T1 sequence (Q9LV10 1-616) with T117D
B8: GTR2 T58D: GTR2 of SEQ ID No: 4 with T at position 58 for D (protein, listed as Arabidopsis thaliana)
chain: T1 sequence (Q9LV10 1-616) with T58D

Where a chain is given by its changes, count along the chain named. Names may count otherwise. Where a SMILES comes first, the peptide text is derived from it.

One test has as its system Xenopus oocytes. Put plainly: 4-MTB import by phosphorylation/dephosphorylation mimicking GTR1 and GTR2 constructs in oocytes (LC-MS). The format is cell-based. The settings on record: 100 μM 4-MTB, Kulori pH 5, one hour.
In the case of B1, the 4-MTB transport activity result is “turns of f transport completely”.
With B2, the 4-MTB transport activity result is recorded as “block the transport activity”.
Consider B3, for which the 4-MTB transport activity result is “keeps the import intact”.
In the case of B4, the 4-MTB transport activity entry is “block the transport activity”.
In the case of B5, the 4-MTB transport activity result is on record as “keeps the transport activity intact”.
As to B6, the 4-MTB transport activity result is reported as “block the transport activity”.
As for B7, the 4-MTB transport activity entry is “block the transport activity”.
For the molecule B8, the 4-MTB transport activity result is on record as “inactivates the transport”.

The target in the next test is T1, AtGTR2. Put plainly: Glucosinolate uptake by AtGTR2 expressing oocytes, LC-MS analysis of oocyte extracts. The format is cell-based. The settings on record: data not shown.
Take `C[S+]([O-])CCCC/C(=N/OS(=O)(=O)O)S[C@@H]1O[C@H](CO)[C@@H](O)[C@H](O)[C@H]1O` (stereo partly shown): the “uptake by AtGTR2 measured by LC-MS analysis of oocyte extracts” value is “took up”.
Regarding `O=S(=O)(O)O/N=C(\Cc1ccc(O)cc1)S[C@@H]1O[C@H](CO)[C@@H](O)[C@H](O)[C@H]1O` [pOHBG, p-hydroxybenzyl-GSL], the “uptake by AtGTR2 measured by LC-MS analysis of oocyte extracts” value is “took up”.

The next test deals with T2, AtGTR1. Put plainly: Substrate-induced currents in voltage-clamped Xenopus oocytes expressing AtGTR1. The format is cell-based. The settings on record: 100 μM substrate, pH 5, voltage clamped at −50 mV, AtGTR1.
For `C[S+]([O-])CCCC/C(=N/OS(=O)(=O)O)S[C@@H]1O[C@H](CO)[C@@H](O)[C@H](O)[C@H]1O` (stereo partly shown), the inward current is listed as ~10 nA.

The same test, now with this note: 133 μM, pH 5, AtGTR1.
Turning to `C[C@H](N)C(=O)N[C@@H](Cc1cnc[nH]1)C(=O)O` [ala-his] (H-Ala-His-OH), the currents on perfusion entry is listed as “did not result in any detectable currents”.
`CC(NC(=O)C(N)CC(=O)O)C(=O)O` (stereo not shown) [asp-ala]: the currents on perfusion entry was “did not result in any detectable currents”.
In the case of `NCC(=O)NCC(=O)NCC(=O)O` [gly-gly-gly] (H-Gly-Gly-Gly-OH), the currents on perfusion entry was “did not result in any detectable currents”.
Turning to `CC(C)C[C@H](NC(=O)CN)C(=O)O` [gly-leu], the currents on perfusion entry is “did not result in any detectable currents”.
Consider `CSCC[C@H](N)C(=O)N[C@@H](C)C(=O)N[C@@H](CO)C(=O)O` [met-ala-ser] (H-Met-Ala-Ser-OH), for which the currents on perfusion entry is “did not result in any detectable currents”.

For the origin of these results see patent US20140137294A1, “GLUCOSINOLATE TRANSPORTER PROTEIN AND USES THEREOF” (UNIVERSITY OF COPENHAGEN, priority 2010, published 2014).
